Results as given in the supplement of paper PMC11246515.
± gives the standard deviation of the averaged measurements.

Assay: total protein half-life in vivo (active degradation + dilution); higher = more stable protein
[1] = E. coli NCM3722 delta-clpP delta-lon delta-hslV, growth: N-lim chemostat, doubling time 6 h
[2] = wild type E. coli NCM3722, growth: C-lim chemostat, doubling time 12 h
[3] = E. coli NCM3722 delta-clpP, growth: N-lim chemostat, doubling time 6 h
[4] = E. coli NCM3722 delta-hslV, growth: N-lim chemostat, doubling time 6 h
[5] = E. coli NCM3722 delta-smpB, growth: N-lim chemostat, doubling time 6 h
[6] = wild type E. coli NCM3722, growth: C-lim chemostat, doubling time 3 h
[7] = wild type E. coli NCM3722, growth: C-lim chemostat, doubling time 6 h
[8] = wild type E. coli NCM3722, growth: N-lim chemostat, doubling time 6 h
[9] = wild type E. coli NCM3722, growth: N-lim chemostat, doubling time 12 h
[10] = wild type E. coli NCM3722, growth: P-lim chemostat, doubling time 6 h
[11] = wild type E. coli NCM3722, growth: P-lim chemostat, doubling time 12 h
[12] = E. coli NCM3722 delta-lon, growth: N-lim chemostat, doubling time 6 h

Sequence | total protein half-life in vivo [1] [h] | total protein half-life in vivo [2] [h] | total protein half-life in vivo [3] [h] | total protein half-life in vivo [4] [h] | total protein half-life in vivo [5] [h] | total protein half-life in vivo [6] [h] | total protein half-life in vivo [7] [h] | total protein half-life in vivo [8] [h] | total protein half-life in vivo [9] [h] | total protein half-life in vivo [10] [h] | total protein half-life in vivo [11] [h] | total protein half-life in vivo [12] [h]
MTLLASLRDWLKAQQLDAVLLSSRQNKQPHLGISTGSGYVVISRESAHILVDSRYYVEVEARAQGYQLHLLDATNTLTTIVNQIIADEQLQTLGFEGQQVSWETAHRWQSELNAKLVSATPDVLRQIKTPEEVEKIRLACGIADRGAEHIRRFIQAGMSEREIAAELEWFMRQQGAEKASFDTIVASGWRGALPHGKASDKIVAAGEFVTLDFGALYQGYCSDMTRTLLVNGEGVSAESHLLFNVYQIVLQAQLAAISAIRPGVRCQQVDDAARRVITEAGYGDYFGHNTGHAIGIEVHEDPRFSPRDTTTLQPGMLLTVEPGIYLPGQGGVRIEDVVLVTPQGAEVLYAMPKTVLLTGEA | 6.04 | 3.72 |  |  |  |  |  |  |  |  |  | 
MKMVSRITAIGLAGVAICYLGLSGYVWYHDNKRSKQADVQASAVSENNKVLGFLREKGCDYCHTPSAELPAYYYIPGAKQLMDYDIKLGYKSFNLEAVRAALLADKPVSQSDLNKIEWVMQYETMPPTRYTALHWAGKVSDEERAEILAWIAKQRAEYYASNDTAPEHRNEPVQPIPQKLPTDAQKVALGFALYHDPRLSADSTISCAHCHALNAGGVDGRKTSIGVGGAVGPINAPTVFNSVFNVEQFWDGRAATLQDQAGGPPLNPIEMASKSWDEIIAKLEKDPQLKTQFLEVYPQGFSGENITDAIAEFEKTLITPDSPFDKWLRGDENALTAQQKKGYQLFKDNKCATCHGGIILGGRSFEPLGLKKDFNFGEITAADIGRMNVTKEERDKLRQKVPGLRNVALTAPYFHRGDVPTLDGAVKLMLRYQVGKELPQEDVDDIVAFLHSLNGVYTPYMQDKQ | > 8 | 12.2 | 4.69 | 5.53 | 4.76 | 3.28 ± 0.2 | 5.27 ± 1 | 5.16 | 10.8 | 5.31 | 11 ± 1.4 | 
MPLLKLWAGSLVMLAAVSLPLQAASPVKVGSKIDTEGALLGNIILQVLESHGVPTVNKVQLGTTPVVRGAITSGELDIYPEYTGNGAFFFKDENDAAWKNAQQGYEKVKKLDSEHNKLIWLTPAPANNTWTIAVRQDVAEKNKLTSLADLSRYLQEGGTFKLAASAEFIERADALPAFEKAYGFKLGQDQLLSLAGGDTAVTIKAAAQQTSGVNAAMAYGTDGPVAALGLQTLSDPQGVQPIYAPAPVVRESVLREYPQMAQWLQPVFASLDAKTLQQLNASIAVEGLDAKKVAADYLKQKGWTK | 4.32 ± 0.22 | 9.88 ± 1.8 | 5 ± 0.74 | 6.28 ± 0.2 | 5.47 ± 0.21 | 3.08 ± 0.17 | 5.7 ± 0.057 | 5.95 ± 0.34 | 12 ± 0.96 | 6.08 ± 0.75 | 12 ± 0.14 | 7.16 ± 0.13
MIISAASDYRAAAQRILPPFLFHYMDGGAYSEYTLRRNVEDLSEVALRQRILKNMSDLSLETTLFNEKLSMPVALAPVGLCGMYARRGEVQAAKAADAHGIPFTLSTVSVCPIEEVAPAIKRPMWFQLYVLRDRGFMRNALERAKAAGCSTLVFTVDMPTPGARYRDAHSGMSGPNAAMRRYLQAVTHPQWAWDVGLNGRPHDLGNISAYLGKPTGLEDYIGWLGNNFDPSISWKDLEWIRDFWDGPMVIKGILDPEDARDAVRFGADGIVVSNHGGRQLDGVLSSARALPAIADAVKGDIAILADSGIRNGLDVVRMIALGADTVLLGRAFLYALATAGQAGVANLLNLIEKEMKVAMTLTGAKSISEITQDSLVQGLGKELPAALAPMAKGNAA | 6.01 ± 0.3 | 5.29 ± 0.5 | 5.992 ± 0.053 | 4 ± 0.14 | 3.68 ± 0.38 | 2.28 ± 0.062 | 3.76 ± 0.41 | 3.73 ± 0.068 | 6.57 ± 0.92 | 3.28 ± 0.48 | 6.38 ± 0.44 | 3.3 ± 0.036
MVSNASALGRNGVHDFILVRATAIVLTLYIIYMVGFFATSGELTYEVWIGFFASAFTKVFTLLALFSILIHAWIGMWQVLTDYVKPLALRLMLQLVIVVALVVYVIYGFVVVWGV [P0AC44] |  | 12 ± 4.5 |  | 6.12 ± 0.19 |  | 3.03 ± 0.042 | 6.01 ± 0.4 | 5.87 ± 0.39 |  |  | 12.5 | 
MFDIGVNLTSSQFAKDRDDVVACAFDAGVNGLLITGTNLRESQQAQKLARQYSSCWSTAGVHPHDSSQWQAATEEAIIELAAQPEVVAIGECGLDFNRNFSTPEEQERAFVAQLRIAADLNMPVFMHCRDAHERFMTLLEPWLDKLPGAVLHCFTGTREEMQACVAHGIYIGITGWVCDERRGLELRELLPLIPAEKLLIETDAPYLLPRDLTPKPSSRRNEPAHLPHILQRIAHWRGEDAAWLAATTDANVKTLFGIAF | 5.07 ± 0.43 | 8.95 ± 0.15 | 4.32 ± 0.31 |  | 3.97 ± 0.48 | 2.67 | 5.44 ± 0.34 | 5.25 ± 1 | 8.13 ± 1.8 | 4.15 ± 0.38 | 9.01 ± 0.23 | 5.25 ± 0.68
MNNHFGKGLMAGLKATHADSAVNVTKFCADYKRGFVLGYSHRMYEKTGDRQLSAWEAGILTRRYGLDKEMVMDFFRENNSCSTLRFFMAGYRLEN | 4.99 ± 0.16 |  |  |  |  |  |  |  |  |  |  | 
MASQLTDAFARKFYYLRLSITDVCNFRCTYCLPDGYKPSGVTNKGFLTVDEIRRVTRAFARLGTEKVRLTGGEPSLRRDFTDIIAAVRENDAIRQIAVTTNGYRLERDVASWRDAGLTGINVSVDSLDARQFHAITGQDKFNQVMAGIDAAFEAGFEKVKVNTVLMRDVNHHQLDTFLNWIQHRPIQLRFIELMETGEGSELFRKHHISGQVLRDELLRRGWIHQLRQRSDGPAQVFCHPDYAGEIGLIMPYEKDFCATCNRLRVSSIGKLHLCLFGEGGVNLRDLLEDDTQQQALEARISAALREKKQTHFLHQNNTGITQNLSYIGG | 3.3 ± 0.76 | 1.92 ± 0.54 | 1.83 ± 0.45 | 0.963 ± 0.26 | 0.9113 ± 0.009 | 0.618 ± 0.051 | 1.11 ± 0.23 | 1.03 | 1.81 ± 0.17 | > 8 | 2.39 ± 0.45 | 1.07 ± 0.34
MAVIQDIIAALWQHDFAALADPHIVSVVYFVMFATLFLENGLLPASFLPGDSLLILAGALIAQGVMDFLPTIAILTAAASLGCWLSYIQGRWLGNTKTVKGWLAQLPAKYHQRATCMFDRHGLLALLAGRFLAFVRTLLPTMAGISGLPNRRFQFFNWLSGLLWVSVVTSFGYALSMIPFVKRHEDQVMTFLMILPIALLTAGLLGTLFVVIKKKYCNA [P0AA60] | 4.46 | 7.25 | 4.55 | 3.26 |  | 2.23 | 4.04 ± 1.4 |  |  | > 8 | 8.67 | 
MLTVKQIEAAKPKEKPYRLLDGNGLYLYVPVSGKKVWQLRYKIDGKEKILTVGKYPLMTLQEARDKAWTARKDISVGIDPVKAKKASSNNNSFSAIYKEWYEHKKQVWSVGYATELAKMFDDDILPIIGGLEIQDIEPMQLLEVIRRFEDRGAMERANKARRRCGEVFRYAIVTGRAKYNPAPDLADAMKGYRKKNFPFLPADQIPAFNKALATFSGSIVSLIATKVLRYTALRTKELRSMLWKNVDFENRIITIDASVMKGRKIHVVPMSDQVVELLTTLSSITKPVSEFVFAGRNDKKKPICENAVLLVIKQIGYEGLESGHGFRHEFSTIMNEHEWPADAIEVQLAHANGGSVRGIYNHAQYLDKRREMMQWWADWLDEKVE | 6.44 ± 2.1 | 10.3 ± 0.26 | 5.79 ± 0.58 | 5.96 ± 0.24 | 5.02 ± 0.39 | 3.123 ± 0.013 | 5.53 ± 0.077 | 5.503 ± 0.0091 |  | 5.34 ± 0.46 | 10.8 ± 1.7 | 5.37 ± 0.098
MSDNIRVGLIGYGYASKTFHAPLIAGTPGQELAVISSSDETKVKADWPTVTVVSEPKHLFNDPNIDLIVIPTPNDTHFPLAKAALEAGKHVVVDKPFTVTLSQARELDALAKSLGRVLSVFHNRRWDSDFLTLKGLLAEGVLGEVAYFESHFDRFRPQVRDRWREQGGPGSGIWYDLAPHLLDQAITLFGLPVSMTVDLAQLRPGAQSTDYFHAILSYPQRRVILHGTMLAAAESARYIVHGSRGSYVKYGLDPQEERLKNGERLPQEDWGYDMRDGVLTRVEGEERVEETLLTVPGNYPAYYAAIRDALNGDGENPVPASQAIQVMELIELGIESAKHRATLCLA | 5.37 ± 0.71 | 9.43 ± 2.6 | 4.69 ± 0.12 | 4.729 ± 0.033 | 4.176 ± 0.0077 | 3.26 ± 0.26 | 5.54 ± 0.26 | 5.05 ± 0.36 | 10.5 ± 0.45 | 5.48 ± 0.27 | 13.8 ± 0.79 | 5.58 ± 0.43
MLARGKTNLKIEEIRMHKHHEIHRVKPLMPALCRIRQGKKVINWETHTLTVDNNQIILFPCGYEFYIENYPEAGLYLAEMLYLPIDLIESFQKLYTVTDQIRNKTSFFLPQNPELIYCWEQLKTSVSRGFSTKIQEHLAMGVLLSLGVNHVNHLLLSYSKQSLISRCYNLLLSEPGTKWTANKVARYLYISVSTLHRRLASEGVSFQSILDDVRLNNALSAIQTTVKPISEIARENGYKCPSRFTERFHNRFNITPREIRKASRE | 5.01 ± 0.22 | 6.07 ± 1.8 | > 8 |  | 3.44 ± 0.094 | 2 ± 0.38 | 3.83 ± 0.19 | 4.12 ± 0.23 | 7.29 ± 0.94 | 3.65 ± 1.5 | 5.86 ± 1.1 | 
MMTTILTIHVPSTPGRAWNMLVALQAGNIVARYAKLHLYDAFAIQESRRVDAGNEIAPLLEVEGMKVGLMTCYDLRFPELALAQALQGAEILVLPAAWVRGPLKEHHWSTLLAARALDTTCYMVAAGECGNKNIGQSRIIDPFGVTIAAASEMPALIMAEVTPERVRQVRAQLPVLNNRRFAPPQLL [P0DP64] | 7.53 |  |  |  |  |  |  |  |  |  |  | 
